The values that follow come from the DeepSol protein solubility set.

The nature of the data set: soluble on expression in E. coli; label from the status in PepcDB or PDB records.
For “MGSDKIHHHHHHMTKKLPIGIQTFREIREESYYYVDKTSFALKLAMEGKYYFLSRPRRFGKSLFLDTLAELFAGNEALFHGLYCHDRWDWSVRYPIIRLSFAEGWLESRAQLDKRICWLLEQNQQRLGVTCKQESDIPGSFAELLQNAEAKYGQRCVVLVDEYDKPILDNITEPEIARAMREGLRNLYSVIKGQDAHIRFAFLTGVSKFSKVSIFSGLNNLNDITIDADYSAICGYTDEDVDTVFAPELPGLDRQQIQDWYNGYNWTGQPVYNPFDLLLLFDKREFRAYWFETGTPTFLVDWLMQRGYFTPSLSRQYSSLELLSAFDVDHIEPEALLFQTGYTTLQGVEEYLPGQRIYWLGYPNKEVQISLNNALLPALGIEGQKVLTHRIRLLELLRANNFAGLQQLFTSFFASIPHDWYRNNPIAQYEGYYASVFYSHFAALGLDIVVEDTTHHGRIDMAVTFNANVYLFEFKVVELVPEGHALEQLKTKGYAEKYKIRNEPIYLIGAEFSKDSRSVVAFDVELFA”, the “soluble on expression in E. coli” value is “not soluble”.
Regarding “SNAMENQKMQEPLVYRRILLTVDEDDNTSSERAFRYATTLAHDYDVPLGICSVLESEDINIFDSLTPSKIQAKRKHVEDVVAEYVQLAEQRGVNQVEPLVYEGGDVDDVILEQVIPEFKPDLLVTGADTEFPHSKIAGAIGPRLARKAPISVIVVR”, the “soluble on expression in E. coli” value is “soluble”.
For “MGHHHHHHSHMKTRQAFYLHTTKLTRIARRLCREILRPWHAARHPYLPINSAAIKAECTARLPEASQSPLVLKQAVRKPLEAVLRYLETHPRPPKPDPVKSVSSVLSSLTPAKVAPVINNGSPTILGKRSYEQHNGVDGNMKKRLLMPSRGLANHGQTRHMGPSRNLLLNGKSYPTKVRLIRGGSLPPVKRRRMNWIDAPDDVFYMATEETRKIRKLLSSSETKRAARRPYKPIALRQSQALPPRPPPPAPVNDEPIVIED” the value was “soluble”; for “MSLKMEDIAISITGYSYSNIKETIPDGVDKEEIAAVYEEIIDEYLQKGIPREIPALINVSGVPGAGKSTFCKKLLAMPENSSAIYIGFDAIMENERLPYIREEVNHAEEAFKRWELSARIAGYELLKRAIENKYLIIFDHSSALSQHIDLFNLLLSEGYEVHFNFIFIPEEEARRRAKNRKRYIPPYYIEERSKTLQYLLPEYKRICTTFKQIEPMRTRLIIARHGNTFRPEETPTRVGAKTDLPLVEEFKGRSIGRYLKEHDMIPDVIYAAPLLRTMQTARLAVQTIGLDSDISPLNAFVEIDYGVDENKTEEEVRLRLGNGNIEKGKKIIEDWDKNAVVPDGWKVDPDQIIHTWLDFAEKTVIPHQTTLLVTSNGIIRFAPYLTGDFEKFAQEHKIKVAPGGLCIFDKNDGDSFWTCSAWNVKPYELYADSEGHHHHHH”, “soluble”; for “MSRLLLVWDAPNLDMGLGALLGGRPTTAHRPRFDAVGRWLLAKAGELAHTTGSKVESEATVFANVVPGSADSIRSWVEALRNVGFAVFAKPKLRDDTDVDPDMLAHIRKRFEEGDLAGVIVASADGRNFQETLDELASAGVAITVIGFHEHATWALADDRITFVDLEEIPGVFREPLPRVSLDNLPEEGAWLKPIRPLSALLSKSK”, “not soluble”.
Under “MGSDKIHHHHHHMDEETRRAVATADEALPTSDALPDAIDTGRVVFGFDGYLDRVREVVADRIDPESHERLATLESFGDRIDRSVAADSSLSFEWLQQGSRTGGHTSHLARAFGGWSFDPVMVGMYGDPVHDAFETEFGEYELHSLGEPGVTDAVEFDDGKLMLTEIGDTMSLDWAELDTAFGHDRLAEKLDGASLLGTGYWSETPDLPTVFDGLRTLWDGIDDPPETVLVDPGDVRKLDADRLRAGREAIGRLDEVTDVVVTSNRAETGVLADAYAGDAERSFADDAEAVFEALEPTWFVGHGVEQSVVVTAAGTDSVAVPSVSDPELTTSSGDHFNAGLGLARIADLSPAAAVVVGNAVAGYFVRTADQPSLADVRAFVDEYLEKF” stands “not soluble”; under “MAKKSTGFDHDPVRVLVAWNPSSHGAEAIECAAWLARTTNVTVQCVTAFLRPWPSSSGNKLGSKYKKWFKKEAFACEDAVKAAFSRAEIPTAMWADTVSVFCDGTNEAALLSEAAHKFGADIVLLGSEAAAPKGRFLAGSTADALLHSSPQPLGLTPRKPKLSKRGVTRVNFAYTGDATDNTSLIRTARLAAAWDVPLRVLALSPEGFGVPPISDTLELPEDLALEWRENTFAVLDRSRDTVHKAHPDVIVETEIGSGNGWSGAIESLKWKKGDLLCFGSTPLGAFERVFIGSQATEILPYVSVPVLMIPATTKVDKKSKK”, “soluble”; under “MSLDPSKVTSMSAVEFTPLPTCLQHRSCDACMSSDLTFNCSWCHVLQRCSSGFDRYRQEWMDYGCAQEAEGRMCEDFQDEGHHHHHH”, “not soluble”.
For “RERLLSEAKATLQNYVAIAMTAIKPLYDAAAPGDEAARANAIKLLSAVSYGKDGYLFGYDSQVVRIFRSTSPDGLGKSFVDARDANGVYINR”, the “soluble on expression in E. coli” value is listed as “not soluble”.
Under “DLLSWFKGNDRPPAPAGKALEFSKPAAWQNNLPLTPADKVSGYNNFYEFGLDKADPAANAGSLKTDPWTLKISGEVAKPLTLDHDDLTRRFPLEERIYRMRCVEAWSMVVPWIGFPLHKLLALAEPTSNAKYVAFETIYAPEQMPGQQDRFIGGGLKYPYVEGLRLDEAMHPLTLMTVGVYGKALPPQNGAPVRLIVPWKYGFKGIKSIVSIKLTRERPPTTWNLAAPDEYGFYANVNPYVDHPRWSQATERFIGSGGILDVQRQPTLLFNGYADQVASLYRGLDLRENFLEHHHHHH” stands “soluble”; under “MGSDKIHHHHHHMSNQPHKPYGTPEPTYSGNKRSLILAGGGMRVAYQAGAIRALIESGLCFNHADGTSGGTMNLAMLLSGLSPIEMCDRWQTLNVKDFVSFIPLEKYLKAWDLLSMGDADGIIDRVFPHLGIDISKINASEGMQGTFNVCNFTHKTNEVIPHDRLDLDLLVAGISLPIFMPPVQKGDYLYMDSVWIKDVNLMEAVRRGADELWVLWCIGNSSEYQTGIFNQYVHMMELSANGAFFEECDRINEINQRILQGETVYGHTQPIKLHLIKPAYPLPLDPDYYLGNIDGATLVDMGYADAKQYLQTMSPAGLPFQPDVTRMHNNLPGMTFRESMAGAFVLNETDPIQGAAKGKAHNSSLSLQLTINICDLKRFLGDTTFTASIAGNISFANFGEHIPFKRGVFNLFAHDHNPGYKYITYELAFEHGNQDYYLVGKKELHNDPGFDLWQDMTTIYTYLHQGTDNNSPIIGSGILTLDVGDVAKCVSGWRITNAKSLTEKTTLLAEFGSFFWGNIWETYQP”, “not soluble”; under “MAAHQLSDFQRNKILRVFNTFYDCNHDGVIEWDDFELAIKKICNLHSWPTDGKKHNEARATLKLIWDGLRKYADENEDEQVTKEEWLKMWAECVKSVEKGESLPEWLTKYMNFMFDVNDTSGDNIIDKHEYSTVYMSYGIPKSDCDAAFDTLSDGGKTMVTREIFARLWTEYFVSNDRGAKGNHLFGTLKL”, “soluble”.
For “RDSSDDWEIPDGQITVGQRIGSGSFGTVYKGKWHGDVAVKMLNVTAPTPQQLQAFKNEVGVLRKTRHVNILLFMGYSTKPQLAIVTQWCEGSSLYHHLHASETKFEMKKLIDIARQTARGMDYLHAKSIIHRDLKSNNIFLHEDNTVKIGDFGLATVKSRWSGSHQFEQLSGSILWMAPEVIRMQDSNPYSFQSDVYAFGIVLYELMTGQLPYSNINNRDQIIEMVGRGSLSPDLSKVRSNCPKRMKRLMAECLKKKRDERPSFPRILAEIEELARELSG”, the “soluble on expression in E. coli” value was “soluble”.
Under “MGSDKIHHHHHHMDSELRKRFNPDGSLLRRQQLRMLELLEVIDVICRKHQIPYWLSSGTLIGAARHKGFIPWDDDLDIEMLRSDYLRLLKVLPQELPDNLALQTNETDPNYIFIYGKLRDKDSHLEETNSYDRIFHYTGIYIDIFPLEKIPYCLAWIGGHMQGQIYNQLNNKNIKESTLYKRIRRIYHFNTRIGFPILRFIAKLFPGKELRHSFGTAYFKPRYTDDIFPLTEMEFEGKMFPVPRQTDAVLRKIYGDYMQLPDLENIHPHYNKLEFYK” stands “not soluble”; under “MARGIWGVDSAQVVTDQLFQCVRTELGYPKFWGRYLSEVPNVSEGLTRDEIVRIRNYGVKVLPIYNAFREAVGYANGQVAARNAVFHARRLGIPKNKLLFANIEDFFAVDAAWIAAWVETLYPTGYRPGLYADPTKGDFAAAYCEAVSRNNQVAVQAVIWSAAPRPGTTKEQKAPRYQPAAPPCSANVWVWQYGRDAEVCPVDTNLADRRLLDFLY”, “soluble”.
